The supplement of paper PMC12783771
± gives the standard deviation of the averaged measurements.

B1: library; numbered along this chain (parent)
chain: MNIQIGELAKRTACPVVTIRFYEQEGLLPPPGRSRGNFRLYGEEHVERLQFIRHCRSLDMPLSDVRTLLSYRKRPDQDCGEVNMLLDEHIRQVESRIGALLELKHHLVELREACSGARPAQSCGILQGLSDCVCDTRGTTAHPSD

How the values were obtained:
[1] = variants of: B1; assay: sfGFP reporter fluorescence (15 h) (µM FITC); higher = higher leak; conditions: library round: Round 0; ligand: none
Experimental: (§1)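 Cell-free (BL21 Star DE3 extract, PANOx-SP) biosensing: 1 µL Echo-assembled reactions with linear PbrR variant templates (5 nM) and pPbrR-sfGFP reporter, with 1 µM Pb (lead chloride), 30 µM Zn (zinc acetate) or no ligand; endpoint sfGFP fluorescence after 15 h at 30 °C, calibrated as µM FITC. Round 0 library (alanine scan, site saturation, combinatorial) of PbrR from Cupriavidus metallidurans; 2 biological replicates.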

[2] = variants of: B1; assay: sfGFP reporter fluorescence (15 h) (µM FITC); higher = stronger transcriptional activation; conditions: library round: Round 0
Experimental: as §1

Variant | sfGFP reporter fluorescence [1] | sfGFP reporter fluorescence ([2]; ligand: 1 µM Pb) | sfGFP reporter fluorescence ([2]; ligand: 30 µM Zn)
L8A | 0.0575 ± 0.0021 | 0.0667 ± 0.0042 | 0.313 ± 0.038
K10A | 0.05644 ± 0.00052 | 0.0687 ± 0.0023 | 0.567 ± 0.026
Q4A | 0.0537 ± 0.0044 | 0.0555 ± 0.0018 | 0.4821 ± 0.0029
R20E | 0.0603 ± 0.0023 | 0.0616 ± 0.0015 | 0.06175 ± 0.00026
R20L | 0.06102 ± 0.00026 | 0.0597 ± 0.0026 | 0.0671 ± 0.0047
R20T | 0.0625 ± 0.0018 | 0.0612 ± 0.0021 | 0.06102 ± 0.00026
R20N | 0.06304 ± 0.00052 | 0.0674 ± 0.001 | 0.102 ± 0.0044
R20D | 0.0614 ± 0.0023 | 0.0616 ± 0.0015 | 0.0687 ± 0.0013
R20I | 0.0585 ± 0.00078 | 0.06285 ± 0.00026 | 0.142 ± 0.0057
R20K | 0.0623 ± 0.001 | 0.0625 ± 0.0018 | 0.064 ± 0.00078
R20G | 0.05864 ± 0.00052 | 0.0563 ± 0.0018 | 0.0625 ± 0.0034
R20A | 0.05772 ± 0.00026 | 0.0548 ± 0.0018 | 0.0572 ± 0.001
R20F | 0.0566 ± 0.0013 | 0.05846 ± 0.00026 | 0.0581 ± 0.0039
R20C | 0.063 ± 0.0015 | 0.0618 ± 0.00078 | 0.0634 ± 0.001
R20W | 0.0625 ± 0.0018 | 0.06157 ± 0.00052 | 0.063 ± 0.0015
R20Y | 0.06249 ± 0.00026 | 0.06377 ± 0.00052 | 0.124 ± 0.0018
R20Q | 0.06212 ± 0.00026 | 0.0607 ± 0.00078 | 0.074 ± 0.0031
R20S | 0.0634 ± 0.0021 | 0.061 ± 0.0023 | 0.063
R20P | 0.06285 ± 0.00026 | 0.05974 ± 0.00052 | 0.0673 ± 0.0013
R20V | 0.0623 ± 0.00052 | 0.0618 ± 0.0023 | 0.0627 ± 0.0026
R20M | 0.0607 ± 0.00078 | 0.06066 ± 0.00026 | 0.0605 ± 0.0021
R20H | 0.0618 ± 0.0044 | 0.0647 ± 0.0018 | 0.1048 ± 0.001

Variant | sfGFP reporter fluorescence [1] | sfGFP reporter fluorescence ([2]; ligand: 1 µM Pb) | sfGFP reporter fluorescence ([2]; ligand: 30 µM Zn)
F21C | 0.0599 ± 0.0029 | 0.0597 | 0.0583 ± 0.001
F21Q | 0.0605 | 0.05827 ± 0.00052 | 0.0625 ± 0.00078
F21N | 0.0605 ± 0.0015 | 0.0605 ± 0.0021 | 0.06267 ± 0.00052
F21Y | 0.06102 ± 0.00026 | 0.0755 ± 0.0015 | 0.819 ± 0.015
F21M | 0.0599 ± 0.0013 | 0.0619 ± 0.0021 | 0.09 ± 0.0086
F21V | 0.0625 ± 0.00078 | 0.0608 | 0.0669 ± 0.00078
F21T | 0.0601 ± 0.0015 | 0.06121 ± 0.00052 | 0.06066 ± 0.00026
F21G | 0.059 | 0.0577 ± 0.0023 | 0.0588 ± 0.00078
F21A | 0.059 | 0.0541 ± 0.0013 | 0.0673 ± 0.0013
F21L | 0.0612 ± 0.001 | 0.0581 ± 0.0013 | 0.0696 ± 0.001
F21W | 0.0702 ± 0.0013 | 0.124 ± 0.0031 | 0.945 ± 0.029
F21S | 0.06341 ± 0.00052 | 0.0608 ± 0.001 | 0.06304 ± 0.00052
F21E | 0.0596 ± 0.00078 | 0.06175 ± 0.00026 | 0.0608 ± 0.0015
F21R | 0.0645 | 0.06212 ± 0.00026 | 0.0685 ± 0.0021
F21K | 0.0607 ± 0.0013 | 0.06157 ± 0.00052 | 0.0641
F21D | 0.0616 ± 0.0015 | 0.0614 ± 0.0013 | 0.0599 ± 0.00078
F21H | 0.0596 ± 0.0018 | 0.0629 ± 0.0023 | 0.276 ± 0.0091
F21P | 0.0619 | 0.0603 ± 0.0018 | 0.0629 ± 0.0018
F21I | 0.0597 | 0.0575 ± 0.0031 | 0.0607 ± 0.0018
Q24A | 0.0559 ± 0.0029 | 0.05827 ± 0.00052 | 0.534 ± 0.052
E25A | 0.0634 ± 0.0036 | 0.0823 ± 0.0029 | 0.611 ± 0.041
V17A | 0.0568 ± 0.001 | 0.0566 ± 0.0013 | 0.622 ± 0.11

Variant | sfGFP reporter fluorescence [1] | sfGFP reporter fluorescence ([2]; ligand: 1 µM Pb) | sfGFP reporter fluorescence ([2]; ligand: 30 µM Zn)
T18A | 0.0612 ± 0.001 | 0.0612 ± 0.0026 | 0.188 ± 0.014
R11A | 0.0548 ± 0.0023 | 0.0709 ± 0.0013 | 0.565 ± 0.025
L28A | 0.06322 ± 0.00026 | 0.0603 ± 0.00078 | 0.0695 ± 0.0013
L28C | 0.06304 ± 0.00052 | 0.06487 ± 0.00052 | 0.14 ± 0.0052
E7P | 0.061 ± 0.0013 | 0.0709 ± 0.00078 | 0.3319 ± 0.0018
E7W | 0.0608 ± 0.0015 | 0.06359 ± 0.00026 | 0.19 ± 0.0023
E7N | 0.05919 ± 0.00026 | 0.088 ± 0.0047 | 0.858 ± 0.081
E7Q | 0.0605 | 0.0891 ± 0.0026 | 1.18 ± 0.057
E7F | 0.0601 ± 0.0015 | 0.0636 ± 0.0013 | 0.133 ± 0.012
E7S | 0.0625 ± 0.0018 | 0.087 ± 0.0044 | 0.999 ± 0.052
E7K | 0.0662 ± 0.00078 | 0.113 ± 0.0023 | 1.99 ± 0.1
E7D | 0.0592 ± 0.0018 | 0.0823 ± 0.006 | 1.08 ± 0.044
E7V | 0.06285 ± 0.00026 | 0.0865 | 0.961 ± 0.14
E7H | 0.06139 ± 0.00026 | 0.083 ± 0.0013 | 0.638 ± 0.036
E7G | 0.05882 ± 0.00026 | 0.0755 ± 0.0042 | 0.626 ± 0.02
E7A | 0.0552 ± 0.0018 | 0.0671 ± 0.001 | 1.07 ± 0.011
E7C | 0.06121 ± 0.00052 | 0.0718 ± 0.0021 | 0.421 ± 0.026
E7I | 0.059 ± 0.001 | 0.0759 ± 0.0031 | 0.696 ± 0.014
E7Y | 0.06249 ± 0.00026 | 0.06542 ± 0.00026 | 0.2223 ± 0.00026
E7T | 0.0625 ± 0.0018 | 0.0894 ± 0.001 | 0.904 ± 0.041
E7L | 0.06175 ± 0.00026 | 0.0837 ± 0.0013 | 0.846 ± 0.052
E7M | 0.0616 ± 0.0021 | 0.0854 ± 0.0021 | 0.859 ± 0.01

Variant | sfGFP reporter fluorescence [1] | sfGFP reporter fluorescence ([2]; ligand: 1 µM Pb) | sfGFP reporter fluorescence ([2]; ligand: 30 µM Zn)
E7R | 0.06395 ± 0.00026 | 0.102 ± 0.0054 | 1.25 ± 0.16
V16E | 0.06341 ± 0.00052 | 0.0762 ± 0.001 | 0.986 ± 0.046
V16C | 0.0634 | 0.0861 ± 0.0021 | 0.341 ± 0.081
V16P | 0.06102 ± 0.00026 | 0.08796 ± 0.00052 | 1.53 ± 0.031
V16K | 0.0641 ± 0.0021 | 0.115 ± 0.0021 | 1.93 ± 0.075
V16W | 0.0599 ± 0.0018 | 0.0623 ± 0.0021 | 0.064 ± 0.00078
V16S | 0.06707 ± 0.00052 | 0.1145 ± 0.00026 | 1.22 ± 0.028
V16T | 0.0641 ± 0.0031 | 0.0982 ± 0.0021 | 1.14 ± 0.09
V16I | 0.05864 ± 0.00052 | 0.0768 ± 0.0018 | 0.981 ± 0.061
V16A | 0.059 ± 0.0015 | 0.0729 ± 0.0015 | 1.06 ± 0.1
V16M | 0.0647 ± 0.0029 | 0.099 ± 0.0052 | 0.9379 ± 0.0042
V16H | 0.06542 ± 0.00026 | 0.109 ± 0.0086 | 0.447 ± 0.0096
V16R | 0.0671 ± 0.001 | 0.132 ± 0.0057 | 2.03 ± 0.3
V16D | 0.0649 ± 0.0015 | 0.0975 ± 0.0026 | 0.9703 ± 0.0039
V16Q | 0.0663 ± 0.0031 | 0.112 ± 0.0083 | 1.425 ± 0.0039
V16Y | 0.0629 ± 0.00078 | 0.0678 ± 0.001 | 0.119 ± 0.0018
V16F | 0.0623 ± 0.0015 | 0.0641 | 0.107 ± 0.0029
V16L | 0.06249 ± 0.00026 | 0.0825 ± 0.0021 | 0.56 ± 0.022
V16G | 0.0594 ± 0.0026 | 0.0812 ± 0.0018 | 0.493 ± 0.014
V16N | 0.0643 ± 0.0013 | 0.08686 ± 0.00052 | 0.487 ± 0.011
I19A | 0.0577 ± 0.0013 | 0.0592 ± 0.00078 | 0.08063 ± 0.00052
G6R | 0.0605 ± 0.001 | 0.0632 ± 0.00078 | 0.116 ± 0.0039
